We go through 94 variants from the supplement of paper PMC10567573.

B1: PPP2R2C (parent)
chain: YSSSKGSLRLCDMRAAALCDKHSK
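Further: lentivirally expressed fusions sorted by FACS into six bins by GFP to DsRed ratio, PSI derived from sequencing read proportions per bin multiplied by bin number.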

The variants in the data set derive from B1. Put plainly: protein stability index of a GFP-peptide fusion (GPS, HEK-293T) (PSI 1-6); higher = more stable. To be noted: c terminus: a fixed tail appended.
Consider LSSSKGSLRLCDMRAAALCDKHSK [Y1L], for which the protein stability index worked out at 3.65. For the variant ISSSKGSLRLCDMRAAALCDKHSK [Y1I], the protein stability index came to 3.73. With HSSSKGSLRLCDMRAAALCDKHSK [Y1H] the figure was 3.72; with QSSSKGSLRLCDMRAAALCDKHSK [Y1Q], 3.95.

On to KSSSKGSLRLCDMRAAALCDKHSK [Y1K], for which the protein stability index was determined as 3.79.

Turning to TSSSKGSLRLCDMRAAALCDKHSK [Y1T], the protein stability index turned out to be 4.13. For the variant SSSSKGSLRLCDMRAAALCDKHSK [Y1S], the protein stability index is 3.74.

With CSSSKGSLRLCDMRAAALCDKHSK [Y1C], the protein stability index is 2.98.

As to GSSSKGSLRLCDMRAAALCDKHSK [Y1G], the protein stability index was determined as 3.72. Turning to ESSSKGSLRLCDMRAAALCDKHSK [Y1E], the protein stability index amounted to 4.47. Turning to RSSSKGSLRLCDMRAAALCDKHSK [Y1R], the protein stability index worked out at 3.81. On to DSSSKGSLRLCDMRAAALCDKHSK [Y1D], for which the protein stability index came out at 4.63. Turning to VSSSKGSLRLCDMRAAALCDKHSK [Y1V], the protein stability index was found to be 3.56. As to NSSSKGSLRLCDMRAAALCDKHSK [Y1N], the protein stability index was found to be 3.81. As for ASSSKGSLRLCDMRAAALCDKHSK [Y1A], the protein stability index worked out at 3.93. As to MSSSKGSLRLCDMRAAALCDKHSK [Y1M], the protein stability index turned out to be 3.54. Turning to PSSSKGSLRLCDMRAAALCDKHSK [Y1P], the protein stability index was determined as 3.65.

For FSSSKGSLRLCDMRAAALCDKHSK [Y1F], the protein stability index amounted to 2.31. With WSSSKGSLRLCDMRAAALCDKHSK [Y1W], the protein stability index amounted to 2.92.

Take YSVSKGSLRLCDMRAAALCDKHSK [S3V]: the protein stability index was found to be 1.96. With YSMSKGSLRLCDMRAAALCDKHSK [S3M], the protein stability index was determined as 2.84. With YSDSKGSLRLCDMRAAALCDKHSK [S3D], the protein stability index was determined as 2.92.

Turning to YSESKGSLRLCDMRAAALCDKHSK [S3E], the protein stability index was 2.53.

Take YSWSKGSLRLCDMRAAALCDKHSK [S3W]: the protein stability index turned out to be 2.15. YSYSKGSLRLCDMRAAALCDKHSK [S3Y]: the protein stability index was 1.83. Turning to YSISKGSLRLCDMRAAALCDKHSK [S3I], the protein stability index came out at 3.06. For YSHSKGSLRLCDMRAAALCDKHSK [S3H], the protein stability index worked out at 2.52. With YSQSKGSLRLCDMRAAALCDKHSK [S3Q] the figure was 2.45. Regarding YSRSKGSLRLCDMRAAALCDKHSK [S3R], the protein stability index is 2.29. With YSFSKGSLRLCDMRAAALCDKHSK [S3F], the protein stability index was determined as 2.39. Regarding YSASKGSLRLCDMRAAALCDKHSK [S3A], the protein stability index stood at 2.93. In the case of YSCSKGSLRLCDMRAAALCDKHSK [S3C], the protein stability index came to 3.48. As for YSNSKGSLRLCDMRAAALCDKHSK [S3N], the protein stability index stood at 2.48.

YSGSKGSLRLCDMRAAALCDKHSK [S3G]: the protein stability index came out at 1.95. With YSKSKGSLRLCDMRAAALCDKHSK [S3K] the figure was 2.37; with YSLSKGSLRLCDMRAAALCDKHSK [S3L], 2.7; with YSTSKGSLRLCDMRAAALCDKHSK [S3T], 2.11.

Consider YSPSKGSLRLCDMRAAALCDKHSK [S3P], for which the protein stability index was 2.79. In the case of YSSSKGSLRECDMRAAALCDKHSK [L10E], the protein stability index came to 4.47.

YSSSKGSLRACDMRAAALCDKHSK [L10A]: the protein stability index was 3.72.

Regarding YSSSKGSLRFCDMRAAALCDKHSK [L10F], the protein stability index stood at 2.22. As for YSSSKGSLRCCDMRAAALCDKHSK [L10C], the protein stability index is 2.95.

Consider YSSSKGSLRDCDMRAAALCDKHSK [L10D], for which the protein stability index amounted to 4.23. For YSSSKGSLRHCDMRAAALCDKHSK [L10H], the protein stability index was 3.04. Turning to YSSSKGSLRGCDMRAAALCDKHSK [L10G], the protein stability index amounted to 3.53.

As to YSSSKGSGRLCDMRAAALCDKHSK [L8G], the protein stability index is 2.19. The value for YSSSKGSNRLCDMRAAALCDKHSK [L8N] was 2.36; that for YSSSKGSFRLCDMRAAALCDKHSK [L8F] was 2.5.

With YSSSKGSERLCDMRAAALCDKHSK [L8E], the protein stability index turned out to be 2.41. With YSSSKGSPRLCDMRAAALCDKHSK [L8P] the figure was 2.27. On to YSSSKGSQRLCDMRAAALCDKHSK [L8Q], for which the protein stability index amounted to 1.89. The value for YSSSKGSKRLCDMRAAALCDKHSK [L8K] was 2.17; that for YSSSKGSRRLCDMRAAALCDKHSK [L8R] was 1.51; that for YSSSKGSTRLCDMRAAALCDKHSK [L8T] was 1.97. Consider YSSSKGSWRLCDMRAAALCDKHSK [L8W], for which the protein stability index worked out at 2.39. Consider YSSSKGSVRLCDMRAAALCDKHSK [L8V], for which the protein stability index turned out to be 1.95.

With YSSSKGSYRLCDMRAAALCDKHSK [L8Y], the protein stability index amounted to 1.36.

Regarding YSSSKGSIRLCDMRAAALCDKHSK [L8I], the protein stability index came out at 1.78. On to YSSSKGSCRLCDMRAAALCDKHSK [L8C], for which the protein stability index is 2.5.

Take YSSSKGSMRLCDMRAAALCDKHSK [L8M]: the protein stability index turned out to be 1.79. The value for YSSSKGSSRLCDMRAAALCDKHSK [L8S] was 2.02; that for YSSSKGSDRLCDMRAAALCDKHSK [L8D] was 2.76. As to YSSSKGSHRLCDMRAAALCDKHSK [L8H], the protein stability index is 2.64. Consider YSSSKGSARLCDMRAAALCDKHSK [L8A], for which the protein stability index was 1.75. As for YSSSDGSLRLCDMRAAALCDKHSK [K5D], the protein stability index turned out to be 2.06.

Consider YSSSRGSLRLCDMRAAALCDKHSK [K5R], for which the protein stability index is 1.85. Regarding YSSSLGSLRLCDMRAAALCDKHSK [K5L], the protein stability index was determined as 1.93. As for YSSSGGSLRLCDMRAAALCDKHSK [K5G], the protein stability index stood at 1.49. As for YSSSVGSLRLCDMRAAALCDKHSK [K5V], the protein stability index was found to be 1.55.

YSSSFGSLRLCDMRAAALCDKHSK [K5F]: the protein stability index turned out to be 1.84. For YSSSQGSLRLCDMRAAALCDKHSK [K5Q], the protein stability index was 2.12. As to YSSSAGSLRLCDMRAAALCDKHSK [K5A], the protein stability index worked out at 1.65.

For YSSSSGSLRLCDMRAAALCDKHSK [K5S], the protein stability index worked out at 2.27. As for YSSSTGSLRLCDMRAAALCDKHSK [K5T], the protein stability index came out at 2.23. As for YSSSYGSLRLCDMRAAALCDKHSK [K5Y], the protein stability index is 1.52. With YSSSWGSLRLCDMRAAALCDKHSK [K5W] the figure was 2.11.

For YSSSHGSLRLCDMRAAALCDKHSK [K5H], the protein stability index came to 1.68. With YSSSCGSLRLCDMRAAALCDKHSK [K5C], the protein stability index is 1.68. On to YSSSEGSLRLCDMRAAALCDKHSK [K5E], for which the protein stability index was determined as 1.73. With YSSSPGSLRLCDMRAAALCDKHSK [K5P] the figure was 2.03; with YSSSNGSLRLCDMRAAALCDKHSK [K5N], 1.43; with YSSSMGSLRLCDMRAAALCDKHSK [K5M], 2.1. Regarding YSSSIGSLRLCDMRAAALCDKHSK [K5I], the protein stability index stood at 2.19.

For YYSSKGSLRLCDMRAAALCDKHSK [S2Y], the protein stability index worked out at 2.94. The value for YPSSKGSLRLCDMRAAALCDKHSK [S2P] was 2.5. The value for YISSKGSLRLCDMRAAALCDKHSK [S2I] was 1.54. Regarding YTSSKGSLRLCDMRAAALCDKHSK [S2T], the protein stability index was 2.

On to YGSSKGSLRLCDMRAAALCDKHSK [S2G], for which the protein stability index was determined as 2.46. For the variant YMSSKGSLRLCDMRAAALCDKHSK [S2M], the protein stability index was determined as 1.72.

Turning to YRSSKGSLRLCDMRAAALCDKHSK [S2R], the protein stability index came to 2.98.

In the case of YWSSKGSLRLCDMRAAALCDKHSK [S2W], the protein stability index is 1.89. Take YFSSKGSLRLCDMRAAALCDKHSK [S2F]: the protein stability index was found to be 2.8. On to YHSSKGSLRLCDMRAAALCDKHSK [S2H], for which the protein stability index was 2. The value for YCSSKGSLRLCDMRAAALCDKHSK [S2C] was 1.92.
